B1: Protein disulfide isomerase (HuPDI) (protein)
chain: not shown
B2: Protein disulfide isomerase (YPDI) (protein)
chain: PEDSAVVKLATDSFNEYIQSHDLVLAEFFAPWCGHCKNMAPEYVKAAETLVEKNITLAQIDCTENQDLCMEHNIPGFPSLKIFKNSDVNNSIDYEGPRTAEAIVQFMIKQSQPAVAVVADLPAYLANETFVTPVIVQSGKIDADFNATFYSMANKHFNDYDFVSAENADDDFKLSIYLPSAMDEPVVYNGKKADIADADVFEKWLQVEALPYFGEIDGSVFAQYVESGLPLGYLFYNDEEELEEYKPLFTELAKKNRGLMNFVSIDARKFGRHAGNLNMKEQFPLFAIHDMTEDLKYGLPQLSEEAFDELSDKIVLESKAIESLVKDFLKGDASPIVKSQEIFENQDSSVFQLVGKNHDEIVNDPKKDVLVLYYAPWCGHCKRLAPTYQELADTYANATSDVLIAKLDHTENDVRGVVIEGYPTIVLYPGGKKSESVVYQGSRSLDSLFDFIKENGHFDVDGKALYEEAQEKAAEEADADAELADEEDAIHDEL

Target: Green fluorescent protein (acid-denatured) (Aequorea victoria, UniProt P42212 = GFP)
Assay: GFP refolding fluorescence kinetics (one-site fit, apparent Kd)

| Binder | Kd |
| --- | --- |
| B1 | 180 nM |
| B2 | 300 nM |

From article PMC3155373 (2011)
